From paper doi:10.1101/2020.04.11.018549v1 (biorxiv, 2020) come the findings set out here.

Series [1] deals with T1, RjoADP-GlcPPase (Rhodococcus jostii, UniProt Q0S3Y4).
T1 sequence (Q0S3Y4 1-404): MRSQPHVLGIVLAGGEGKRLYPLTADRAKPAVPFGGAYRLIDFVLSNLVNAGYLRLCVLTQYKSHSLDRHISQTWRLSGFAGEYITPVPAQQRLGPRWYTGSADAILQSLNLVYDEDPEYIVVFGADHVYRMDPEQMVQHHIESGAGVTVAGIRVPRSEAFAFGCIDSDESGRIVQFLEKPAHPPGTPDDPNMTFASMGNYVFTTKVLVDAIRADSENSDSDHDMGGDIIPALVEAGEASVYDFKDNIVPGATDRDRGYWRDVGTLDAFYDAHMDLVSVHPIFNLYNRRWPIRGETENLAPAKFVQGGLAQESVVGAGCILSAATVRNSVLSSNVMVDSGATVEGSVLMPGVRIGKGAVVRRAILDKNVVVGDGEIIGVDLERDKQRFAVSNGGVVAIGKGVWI
The series can be described thus: Pi release. The series is classed as biochemical. Conditions: read-out: S0.5; no effector; ATP, 10 mM MgCl2, pH 8.0, 37°C.

Substrate in series [2]: Nc1ncnc2c1ncn2[C@@H]1O[C@H](COP(=O)(O)OP(=O)(O)OP(=O)(O)O)[C@@H](O)[C@H]1O
The experiment in a line: purified protein. Conditions: no effector, Glc-1P, 10 mM MgCl2, pH 8.0, 37°C.

Substrate in series [3]: O=P(O)(O)O[C@H]1O[C@H](CO)[C@@H](O)[C@H](O)[C@H]1O
The experiment in a line: purified protein. Conditions: no effector, ATP, 10 mM MgCl2, pH 8.0, 37°C.

Take `O=P(O)(O)O[C@H]1O[C@H](CO)[C@@H](O)[C@H](O)[C@H]1O` [Glc-1P]: the Km in series [1] was determined as 1800 µM.

B1: RfaADP-GlcPPase (Rhodococcoides fascians) (protein)
chain: MRTQPHVLGIVLAGGEGKRLYPMTADRAKPAVPFGGAYRLIDFVLSNLVNAGYLRLCVLTQYKSHSLDRHISQTWRLSGFAGEYITPVPAQQRLGPRWYTGSADAIFQSLNLVYDEDPEYIVVFGADHVYRMDPEQMVQQHIDSGAGVTVAGIRVPRSEAFAFGCIDSDENGKITQFLEKPAQPPGTPDDPDVTYASMGNYVFTTKVLVDAIKADSENSDSDHDMGGDIIPALVEAGVASVYDFNDNVVPGATERDRGYWRDVGTIDAFYDAHMDLVSVHPIFNLYNRRWPIRGSAENLPPAKFVQGGLAQESVVGAGCILSAATVRNSVLSSNVMIDSGATVEGSVLMPGVRIGKGAVVRHAILDKNVVVGDGEIVGVDLERDRERFNVSAGGVVSVGKGVWI
By kcat is commonly meant the maximal rate divided by the concentration of active sites. Regarding B1, the results for the K0.5 in series [2] and in series [3] were 0.58 mM and 1.17 ± 0.08 mM, respectively. Further, the kcat in series [3] was determined as 8.8 s⁻¹.
